According to patent US8969060B2, “Modified glucose dehydrogenase” (Ikeda Food Research Co., Ltd., priority 2011, dated 2015):

Key:
[1] = Relative enzymatic activity of GLD (DCIP/1-m-PMS, plate reader, yeast culture supernatant) with 1,10-phenanthroline present; format: biochemical; conditions: site-specific mutants, inhibitor final concentration 1 mM
Method: (§1) The susceptibility defined in the present specification is evaluated in terms of a relative activity that is determined in a system wherein the inhibitor coexists or not. The relative activity is derived from a relative value (%) of an enzymatic activity (a sample value) obtained with the addition of the inhibitor in the determination of the enzymatic activity described in the present specification as compared with an enzymatic activity (a blank value) as “100%” obtained without the addition of the inhibitor in the same determination. Thus, the higher the relative activity is, the less the susceptibility to the inhibitor is (or the more the susceptibility to the inhibitor is reduced), vice versa.
(§2) The enzymatic activity is determined in the following manner in Examples 3 and 6 wherein a plate reader (Japan Molecular Device Corporation, SpectraMax Plus384) is used. Thus, culture supernatant that had been diluted in advance with an appropriate magnification is added to a 96-well microplate with an amount of 100 μl per well. A reagent for the determination of the enzymatic activity comprising phosphate buffer (pH 7.0), 1.0 M D-glucose, 3 mM DCIP, 3 mM 1-m-PMS and methanol with a volume ratio of 0.1:1:0.14:0.2:0.06 is added to the 96-well microplate with an amount of 100 μl per well, and a change in the absorbance of DCIP at 600 nm (ΔABS/min) is then determined. The enzymatic activity can be calculated by conversion in proportion to a change in the absorbance of an enzyme solution for which the enzymatic activity has already been known by the above-mentioned activity determination procedure using the spectrophotometer.
(§3) In the following examples, a value of the enzymatic activity determined by the spectrometer or plate reader using the above reagent composition is considered as a blank value. On the other hand, a sample value is determined using a methanol solution comprising the inhibitor such as 1,10-phenanthroline or proflavin hydrochloride at a final concentration of 1 mM instead of the methanol. Enzymatic activity (unit/mL)=(−ΔABS/16.3)×3.0/0.05×(Dilution ratio of enzyme) [Equation 1]
Into each well of a 96-well microplate (manufactured by Nunc, Inc.), a YPD medium containing 125 μL of 1.0% (w/v) yeast extract (manufactured by BD), 2.0% (w/v) tryptone (manufactured by BD), 2.0% (w/v) glucose (manufactured by Wako Pure Chemical Industries, Ltd.) was dispensed, and the transformant colonies obtained in Example 2 were inoculated thereinto one by one.
After shaking culture at 30° C. and 1,000 rpm for 24 hours, the culture mixture was centrifuged and the supernatant was collected.
According to the above-mentioned method for the determination of enzymatic activity, a blank value and a sample value were determined using a plate reader, and the relative activity (%) was obtained by dividing the sample value by the blank value.

[2] = Relative enzymatic activity of GLD (DCIP/1-m-PMS, plate reader, yeast culture supernatant) with proflavin hydrochloride present; format: biochemical; conditions: site-specific mutants, inhibitor final concentration 1 mM
Method: as §1, §2, §3

B1: D343W: modified GLD: SEQ ID NO: 1 with substitution D343W (protein, listed as Aspergillus terreus)
chain: MLGKLSFLSALSLAVAAPLSNSTSAKYDYIVIGGGTSGLAVANRLSEDPNVNVLILEAGGSVWNNPNVTNVDGYGLAFGSDIDWQYQSVNQPYGGNLSQVLRAGKALGGTSTINGMAYTRAEDVQIDAWETIGNTGWTWKNLFPYYRKSENFTVPTKSQTSLGASYEAGAHGHEGPLDVAFTQIESNNLTTYLNRTFQGMGLPWTEDVNGGKMRGFNLYPSTVNLEEYVREDAARAYYWPYKSRPNLHVLLNTFANRIVWDGEAHDGHITASGVEITSRNGTVRVINAEKEVIVSAGALKSPAILELSGIGNPSVLDKHNIPVKVNLPTVGENLQDQVNSHMWASGNTSISGTKAVSYPDVYDVFGDEAESVAKQIRANLKQYAADTAKANGNIMKAADLERLFEVQYDLIFKGRVPIAEVLNYPGSATSVFAEFWALLPFARGSVHIGSSNPAEFPVINPNYFMLDWDAKSYVAVAKYIRRSFESYPLSSIVKESTPGYDVIPRNASEQSWKEWVFDKNYRSNFHPVGTAAMMPREIGGVVDERLNVYGTTNVRVVDASVLPFQVCGHLVSTLYAVAERAADLIKADAGRR
modifications: SIGNAL (1)..(19)
[1]
  Relative Activity [%] 1,10-Phenanthroline: 94.2%
[2]
  Relative Activity [%] Proflavin hydrochloride: 57.9%

B2: D343Y: modified GLD: SEQ ID NO: 1 with substitution D343Y (protein, listed as Aspergillus terreus)
chain: MLGKLSFLSALSLAVAAPLSNSTSAKYDYIVIGGGTSGLAVANRLSEDPNVNVLILEAGGSVWNNPNVTNVDGYGLAFGSDIDWQYQSVNQPYGGNLSQVLRAGKALGGTSTINGMAYTRAEDVQIDAWETIGNTGWTWKNLFPYYRKSENFTVPTKSQTSLGASYEAGAHGHEGPLDVAFTQIESNNLTTYLNRTFQGMGLPWTEDVNGGKMRGFNLYPSTVNLEEYVREDAARAYYWPYKSRPNLHVLLNTFANRIVWDGEAHDGHITASGVEITSRNGTVRVINAEKEVIVSAGALKSPAILELSGIGNPSVLDKHNIPVKVNLPTVGENLQDQVNSHMYASGNTSISGTKAVSYPDVYDVFGDEAESVAKQIRANLKQYAADTAKANGNIMKAADLERLFEVQYDLIFKGRVPIAEVLNYPGSATSVFAEFWALLPFARGSVHIGSSNPAEFPVINPNYFMLDWDAKSYVAVAKYIRRSFESYPLSSIVKESTPGYDVIPRNASEQSWKEWVFDKNYRSNFHPVGTAAMMPREIGGVVDERLNVYGTTNVRVVDASVLPFQVCGHLVSTLYAVAERAADLIKADAGRR
modifications: SIGNAL (1)..(19)
[1]
  Relative Activity [%] 1,10-Phenanthroline: 96.2%
[2]
  Relative Activity [%] Proflavin hydrochloride: 55.6%

B3: A298I: modified GLD: SEQ ID NO: 1 with substitution A298I (protein, listed as Aspergillus terreus)
chain: MLGKLSFLSALSLAVAAPLSNSTSAKYDYIVIGGGTSGLAVANRLSEDPNVNVLILEAGGSVWNNPNVTNVDGYGLAFGSDIDWQYQSVNQPYGGNLSQVLRAGKALGGTSTINGMAYTRAEDVQIDAWETIGNTGWTWKNLFPYYRKSENFTVPTKSQTSLGASYEAGAHGHEGPLDVAFTQIESNNLTTYLNRTFQGMGLPWTEDVNGGKMRGFNLYPSTVNLEEYVREDAARAYYWPYKSRPNLHVLLNTFANRIVWDGEAHDGHITASGVEITSRNGTVRVINAEKEVIVSAGILKSPAILELSGIGNPSVLDKHNIPVKVNLPTVGENLQDQVNSHMDASGNTSISGTKAVSYPDVYDVFGDEAESVAKQIRANLKQYAADTAKANGNIMKAADLERLFEVQYDLIFKGRVPIAEVLNYPGSATSVFAEFWALLPFARGSVHIGSSNPAEFPVINPNYFMLDWDAKSYVAVAKYIRRSFESYPLSSIVKESTPGYDVIPRNASEQSWKEWVFDKNYRSNFHPVGTAAMMPREIGGVVDERLNVYGTTNVRVVDASVLPFQVCGHLVSTLYAVAERAADLIKADAGRR
modifications: SIGNAL (1)..(19)
[1]
  Relative Activity [%] 1,10-Phenanthroline: 73.7%
[2]
  Relative Activity [%] Proflavin hydrochloride: 43.8%
